# Assay results published in US20080182978A1, “ANTI-NGF ANTIBODIES AND METHODS USING SAME” (RINAT NEUROSCIENCE CORP, priority 2002, published 2008).
# “Also recorded” adds a separate entry of the source.
# B1: E3: humanized, affinity matured anti-NGF antagonist antibody; variable regions SEQ ID NO:1 and 2; human IgG2a (A330P331 to S330S331), kappa (antibody, V domains shown)
# VH: QVQLQESGPGLVKPSETLSLTCTVSGFSLIGYDLNWIRQPPGKGLEWIGIIWGDGTTDYNSAVKSRVTISKDTSKNQFSLKLSSVTAADTAVYYCARGGYWYATSYYFDYWGQGTLVTVS
# VL: DIQMTQSPSSLSASVGDRVTITCRASQSISNNLNWYQQKPGKAPKLLIYYTSRFHSGVPSRFSGSGSGTDFTFTISSLQPEDIATYYCQQEHTLPYTFGQGTKLEIKRT
# modifications: human IgG2a constant (A330S/P331S) and kappa constant missing
# How the values were obtained:
# [1] = system: post-surgical resting pain (paw incision); assay: Post-surgical pain model, cumulative resting pain score; format: in vivo, rat
# [2] = system: moderate to severe pain from osteoarthritis of the knee; assay: Clinical study, osteoarthritis of the knee: index knee pain VAS, PID/SPID; format: in vivo, human
# Excerpt: Adult males and females (ages between 35 to 65) who were experiencing moderate-to-severe pain from osteoarthritis of the knee, but were in otherwise overall good health were enrolled in the study. During the screening period, patients were required to discontinue arthritis medications such as NSAIDs, cyclooxygenase type-2 (COX-2) inhibitors, and opiates at least 14 days prior to administration of anti-NGF antibody E3. Patients were allowed to use rescue medications of acetaminophen or ibuprofen with some restrictions based on laboratory findings or past medical history. Some patients took rescue medications during the study, but rescue medications were not consumed for 2 days before and after administration of anti-NGF antibody E3. Thirty-four patients were admitted to the study and assessed as inpatients for on Study Days -1, 1 and 2. Anti-NGF antibody E3 administration occurred on the morning of Day 1. Electronic diaries were used to record index knee pain and rescue medication usage in clinic and at home. Ten patients were treated with placebo. Twenty-four patients were treated with anti-NGF antibody E3: four patients per dose level for 3 μg/kg (cohort 1), 10 μg/kg (cohort 2), and 30 μg/kg (cohort 3); and six patients per dose level for 100 μg/kg (cohort 4) and 300 μg/kg (cohort 5). The placebo used was sterile 0.9% Sodium Chloride Injection, USP (normal saline). Anti-NGF antibody E3 was a frozen liquid formulation consisting of 10 mg/ml antibody in an aqueous solution of 10 mM histidine, 275 mM sucrose, 0.01% polysorbate 20, pH 6.0. One hour prior to IV administration, frozen antibody was thawed and diluted into Sodium Chloride Injection, USP. The volume for each patient was calculated based on the subject's Day -1 weight and assigned dose level, ranging from 3-6 cc for cohort 1, 10-20 cc for cohort 2, 30-60 cc for cohort 3, and 100 cc for cohort 4 and cohort 5. For cohorts 1 and 2, antibody E3 was administered by a slow IV bolus over 3 to 5 minutes, followed with an IV flush of 5 cc Sodium Chloride Injection, USP. For cohorts 3-5, antibody E3 was administered at 100 cc/hour via infusion pump, followed with an IV flush of 5 cc Sodium Chloride Injection, USP and discontinuation of the IV. Within each cohort, the placebo (Sodium Chloride Injection, USP) was administered by slow bolus or continuous infusion in the same fashion as the antibody E3. After two in-patient days, patients were discharged home. […] Periodic safety assessments was performed for 181 days in all patients. Analgesic effects were assessed before dosing and at multiple times after administration of antibody E3. […] Patients were cued 4 times daily and instructed to indicate the level of arthritis pain in the index knee at that moment. […] VAS for index knee pain during walking was completed daily, concurrent with the fourth current index knee pain VAS. Electronic diary for data collection was issued on day -8 and a 7-day screening assessment of electronic diary compliance was performed from day -8 to day -2 to determine success in using the electronic diaries for a given subject. Subjects were instructed to complete 4 diaries per day. The mean VAS recorded during the screening period is used as baseline for assessment of efficacy. Outcome was assessed as change from baseline (pain level during screening period), expressed as pain intensity difference (PID) or summed pain intensity difference (SPID) for different dose levels. Changes from baseline in the activity measurements were analyzed using an analysis of covariance (ANCOVA) model with treatment as the main factor and baseline pain as a covariate. For means and mean changes, comparisons of antibody E3 with placebo was made using Dunnett'[…] was used to assess the dose-response relationship.
molecule,measurement,setting,value
B1,resting pain (cumulative pain score),"[1]; 0.5 mg/kg i.v. two hours after surgery, assessed 24 hours after surgery",effectively alleviated post-surgical pain; also recorded: reduced resting pain
same,resting pain (cumulative pain score),"[1]; 0.02 to 1 mg/kg i.p. 15 hours pre-incision, 24 hours after surgery, vs saline",significantly reduced resting pain
same,Summed pain intensity differences (SPID) as compared to baseline,"[2]; All E3 doses, Days 2-8",−713
same,Summed pain intensity differences (SPID) as compared to baseline,"[2]; All E3 doses, Days 2-14",−1269
same,Summed pain intensity differences (SPID) as compared to baseline,"[2]; All E3 doses, Days 2-21",−1752
same,Summed pain intensity differences (SPID) as compared to baseline,"[2]; All E3 doses, Days 2-28",−2254
same,Summed pain intensity differences (SPID) as compared to baseline,"[2]; E3 3 μg/kg single administration, Days 2-8",−572
same,Summed pain intensity differences (SPID) as compared to baseline,"[2]; E3 3 μg/kg single administration, Days 2-14",−956
same,Summed pain intensity differences (SPID) as compared to baseline,"[2]; E3 3 μg/kg single administration, Days 2-21",−1048
same,Summed pain intensity differences (SPID) as compared to baseline,"[2]; E3 3 μg/kg single administration, Days 2-28",−1067
same,Summed pain intensity differences (SPID) as compared to baseline,"[2]; E3 10 μg/kg single administration, Days 2-8",−671
same,Summed pain intensity differences (SPID) as compared to baseline,"[2]; E3 10 μg/kg single administration, Days 2-14",−1174
same,Summed pain intensity differences (SPID) as compared to baseline,"[2]; E3 10 μg/kg single administration, Days 2-21",−1623
same,Summed pain intensity differences (SPID) as compared to baseline,"[2]; E3 10 μg/kg single administration, Days 2-28",−2020
same,Summed pain intensity differences (SPID) as compared to baseline,"[2]; E3 30 μg/kg single administration, Days 2-8",−733
same,Summed pain intensity differences (SPID) as compared to baseline,"[2]; E3 30 μg/kg single administration, Days 2-14",−1371
same,Summed pain intensity differences (SPID) as compared to baseline,"[2]; E3 30 μg/kg single administration, Days 2-21",−2042
same,Summed pain intensity differences (SPID) as compared to baseline,"[2]; E3 30 μg/kg single administration, Days 2-28",−2566
same,Summed pain intensity differences (SPID) as compared to baseline,"[2]; E3 100 μg/kg single administration, Days 2-8",−766
same,Summed pain intensity differences (SPID) as compared to baseline,"[2]; E3 100 μg/kg single administration, Days 2-14",−1403
same,Summed pain intensity differences (SPID) as compared to baseline,"[2]; E3 100 μg/kg single administration, Days 2-21",−1996
same,Summed pain intensity differences (SPID) as compared to baseline,"[2]; E3 100 μg/kg single administration, Days 2-28",−2726
same,Summed pain intensity differences (SPID) as compared to baseline,"[2]; E3 300 μg/kg single administration, Days 2-8",−769
same,Summed pain intensity differences (SPID) as compared to baseline,"[2]; E3 300 μg/kg single administration, Days 2-14",−1340
same,Summed pain intensity differences (SPID) as compared to baseline,"[2]; E3 300 μg/kg single administration, Days 2-21",−1869
same,Summed pain intensity differences (SPID) as compared to baseline,"[2]; E3 300 μg/kg single administration, Days 2-28",−2521
same,"summed pain intensity differences (SPID) vs baseline, ANCOVA","[2]; single administration, p<0.05",pain reduction was statistically significant
same,mean daily pain intensity (VAS) vs baseline,"[2]; single i.v. dose 3, 10, 30, 100 or 300 μg/kg, every dose tested",decrease of mean daily pain intensity
same,duration of pain intensity reduction / pain relief,[2]; single i.v. dose of 100 μg/kg,at least 80 days
